Test results reported in IntAct's records for PubMed 25678664.

B1: Claudin-19 (Mus musculus), Q9ET38 (parent)
chain: MANSGLQLLGYFLALGGWVGIIASTALPQWKQSSYAGDAIITAVGLYEGLWMSCASQSTGQVQCKLYDSLLALDGHIQSARALMVVAVLLGFVAMVLSVVGMKCTRVGDSNPTAKSRVAISGGALFLLAGLCTLTAVSWYATLVTQEFFNPSTPVNARYEFGPALFVGWASAGLAMLGGSFLCCTCPEPERANSIPQPYRSGPSTAAREPVVKLPASVKGPLGV

Variants of: B1
Settings: with eltb_clopf cpe

**Q.** For MANSGLQLLGYFLALGGWVGIIASTALPQWKQSSYAGDAIATAVGLYEGLWMSCASQSTGQVQCKLYDSLLALDGHIQSARALMVVAVLLGFVAMVLSVVGMKCTRVGDSNPTAKSRVAISGGALFLLAGLCTLTAVSWYATLVTQEFFNPSTPVNARYEFGPALFVGWASAGLAMLGGSFLCCTCPEPERANSIPQPYRSGPSTAAREPVVKLPASVKGPLGV [I41A], which “effect of a mutation on the interaction” value is on record?
**A.** decreasing interaction strength

**Q.** With MANSGLQLLGYFLALGGWVGIIASTALPQWKQSSYAGDAIITAVGLYEGLWMSCASQSTGQVQCKLYDSLLALDGHIQSARALMVVAVLLGFVAMVLSVVGMKCTRVGDSNPTAKSRVAISGGALFLLAGLCTLTAVSWYATLVTQEFFDPSTPVNARYEFGPALFVGWASAGLAMLGGSFLCCTCPEPERANSIPQPYRSGPSTAAREPVVKLPASVKGPLGV [N150D] as the variant, how does the “effect of a mutation on the interaction” value read?
**A.** decreasing interaction strength

**Q.** For MANSGLQLLGYFLALGGWVGIIASTALPQWKQSSYAGDAAITAVGLYEGLWMSCASQSTGQVQCKLYDSLLALDGHIQSARALMVVAVLLGFVAMVLSVVGMKCTRVGDSNPTAKSRVAISGGALFLLAGLCTLTAVSWYATLVTQEFFNPSTPVNARYEFGPALFVGWASAGLAMLGGSFLCCTCPEPERANSIPQPYRSGPSTAAREPVVKLPASVKGPLGV [I40A], which “effect of a mutation on the interaction” value is on record?
**A.** decreasing interaction strength

**Q.** Which “effect of a mutation on the interaction” value does the source give for MANSGLQLLGYFLALGGWVGIIASTALPQWKQSSYAGDAIITAVGLYEGLWMSCASQSTGQVQCKLYDSLLALDGHIQSARALMVVAVLLGFVAMVLSVVGMKCTRVGDSNPTAKSRVAISGGALFLLAGLCTLTAVSWYATLVTQEFFNPSTPVGARYEFGPALFVGWASAGLAMLGGSFLCCTCPEPERANSIPQPYRSGPSTAAREPVVKLPASVKGPLGV [N156G] here?
**A.** decreasing interaction strength

**Q.** How did the “effect of a mutation on the interaction” value turn out when MANSGLQLLGYFLALGGWVGIIASTALPQWKQSSYAGDAIITAVGLYEGLWMSCASQSTGQVQCKLYDSLLALDGHIQSARALMVVAVLLGFVAMVLSVVGMKCTRVGDSNPTAKSRVAISGGALFLLAGLCTLTAVSWYATLVTQEFFSPSTPVNARYEFGPALFVGWASAGLAMLGGSFLCCTCPEPERANSIPQPYRSGPSTAAREPVVKLPASVKGPLGV [N150S] was run?
**A.** decreasing interaction strength

**Q.** For MANSGLQLLGYFLALGGWVGIIASTALPQWKQSSYAGDAIITAVGLYEGLWMSCASQSTGQVQCKLYDSLLALDGHIQSARALMVVAVLLGFVAMVLSVVGMKCTRVGDSNPTAKSRVAISGGALFLLAGLCTLTAVSWYATLVTQEFFNPSTAVNARYEFGPALFVGWASAGLAMLGGSFLCCTCPEPERANSIPQPYRSGPSTAAREPVVKLPASVKGPLGV [P154A], which “effect of a mutation on the interaction” value is on record?
**A.** decreasing interaction strength

**Q.** MANSGLQLLGYFLALGGWVGIIASTALPQWKQSSYAGDAIITAVGLYEGLWMSCASQSTGQVQCKLYDSLLALDGHIQSARALMVVAVLLGFVAMVLSVVGMKCTRVGDSNPTAKSRVAISGGALFLLAGLCTLTAVSWYATLVTQEFFQPSTPVNARYEFGPALFVGWASAGLAMLGGSFLCCTCPEPERANSIPQPYRSGPSTAAREPVVKLPASVKGPLGV [N150Q] was tested. Which “effect of a mutation on the interaction” value did it give?
**A.** decreasing interaction strength

**Q.** With MANSGLQLLGYFLALGGWVGIIASTALPQWKQSSYAGDAIITAVGLYEGLWMSCASQSTGQVQCKLYDSLLALDGHIQSARALMVVAVLLGFVAMVLSVVGMKCTRVGDSNPTAKSRVAISGGALFLLAGLCTLTAVSWYATLVTQEFFNPDTPVNARYEFGPALFVGWASAGLAMLGGSFLCCTCPEPERANSIPQPYRSGPSTAAREPVVKLPASVKGPLGV [S152D] as the variant, how does the “effect of a mutation on the interaction” value read?
**A.** decreasing interaction strength

**Q.** Which “effect of a mutation on the interaction” value does the source give for MANSGLQLLGYFLALGGWVGIIASTALPQWKQSSYAGDAISTAVGLYEGLWMSCASQSTGQVQCKLYDSLLALDGHIQSARALMVVAVLLGFVAMVLSVVGMKCTRVGDSNPTAKSRVAISGGALFLLAGLCTLTAVSWYATLVTQEFFNPSTPVNARYEFGPALFVGWASAGLAMLGGSFLCCTCPEPERANSIPQPYRSGPSTAAREPVVKLPASVKGPLGV [I41S] here?
**A.** decreasing interaction strength

**Q.** Which “effect of a mutation on the interaction” value does the source give for MANSGLQLLGYFLALGGWVGIIASTALPQWKQSSYAGDAIITAVGLYEGLWMSCASQSTGQVQCKLYDSLLALDGHIQSARALMVVAVLLGFVAMVLSVVGMKCTRVGDSNPTAKSRVAISGGALFLLAGLCTLTAVSWYATLVTQEFFLPSTPVNARYEFGPALFVGWASAGLAMLGGSFLCCTCPEPERANSIPQPYRSGPSTAAREPVVKLPASVKGPLGV [N150L] here?
**A.** decreasing interaction strength

**Q.** For MANSGLQLLGYFLALGGWVGIIASTALPQWKQSSYAGDAIITAVGLYEGLWMSCASQSTGQVQCKLYDSLLALDGHIQSARALMVVAVLLGFVAMVLSVVGMKCTRVGDSNPTAKSRVAISGGALFLLAGLCTLTAVSWYATLVTQEFFNPSYPVNARYEFGPALFVGWASAGLAMLGGSFLCCTCPEPERANSIPQPYRSGPSTAAREPVVKLPASVKGPLGV [T153Y], which “effect of a mutation on the interaction” value is on record?
**A.** decreasing interaction strength

**Q.** MANSGLQLLGYFLALGGWVGIIASTALPQWKQSSYAGDAIVTAVGLYEGLWMSCASQSTGQVQCKLYDSLLALDGHIQSARALMVVAVLLGFVAMVLSVVGMKCTRVGDSNPTAKSRVAISGGALFLLAGLCTLTAVSWYATLVTQEFFNPSTPVNARYEFGPALFVGWASAGLAMLGGSFLCCTCPEPERANSIPQPYRSGPSTAAREPVVKLPASVKGPLGV [I41V] was tested. Which “effect of a mutation on the interaction” value did it give?
**A.** decreasing interaction strength

**Q.** How did the “effect of a mutation on the interaction” value turn out when MANSGLQLLGYFLALGGWVGIIASTALPQWKQSSSAGDAIITAVGLYEGLWMSCASQSTGQVQCKLYDSLLALDGHIQSARALMVVAVLLGFVAMVLSVVGMKCTRVGDSNPTAKSRVAISGGALFLLAGLCTLTAVSWYATLVTQEFFNPSTPVNARYEFGPALFVGWASAGLAMLGGSFLCCTCPEPERANSIPQPYRSGPSTAAREPVVKLPASVKGPLGV [Y35S] was run?
**A.** decreasing interaction strength

**Q.** How did the “effect of a mutation on the interaction” value turn out when MANSGLQLLGYFLALGGWVGIIASTALPQWKQSSYAGDAIITAVGLYEGLWMSCASQSTGQVQCKLYDSLLALDGHIQSARALMVVAVLLGFVAMVLSVVGMKCTRVGDSNPTAKSRVAISGGALFLLAGLCTLTAVSWYATLVTQEFFKPSTPVNARYEFGPALFVGWASAGLAMLGGSFLCCTCPEPERANSIPQPYRSGPSTAAREPVVKLPASVKGPLGV [N150K] was run?
**A.** decreasing interaction strength

**Q.** With MANSGLQLLGYFLALGGWVGIIASTALPQWKQSSYAGDAIITAVGLYEGLWMSCASQSTGQVQCKLYDSLLALDGHIQSARALMVVAVLLGFVAMVLSVVGMKCTRVGDSNPTAKSRVAISGGALFLLAGLCTLTAVSWYATLVTQEFFNGSTPVNARYEFGPALFVGWASAGLAMLGGSFLCCTCPEPERANSIPQPYRSGPSTAAREPVVKLPASVKGPLGV [P151G] as the variant, how does the “effect of a mutation on the interaction” value read?
**A.** decreasing interaction strength

**Q.** For MANSGLQLLGYFLALGGWVGIIASTALPQWKQSSYAGDAIITAVGLYEGLWMSCASQSTGQVQCKLYDSLLALDGHIQSARALMVVAVLLGFVAMVLSVVGMKCTRVGDSNPTAKSRVAISGGALFLLAGLCTLTAVSWYATLVTQEFFNPSTPVNARFEFGPALFVGWASAGLAMLGGSFLCCTCPEPERANSIPQPYRSGPSTAAREPVVKLPASVKGPLGV [Y159F], which “effect of a mutation on the interaction” value is on record?
**A.** decreasing interaction strength

**Q.** For MANSGLQLLGYFLALGGWVGIIASTALPQWKQSSYAGDAIITAVGLYEGLWMSCASQSTGQVQCKLYDSLLALDGHIQSARALMVVAVLLGFVAMVLSVVGMKCTRVGDSNPTAKSRVAISGGALFLLAGLCTLTAVSWYATLVTQEFFNASTPVNARYEFGPALFVGWASAGLAMLGGSFLCCTCPEPERANSIPQPYRSGPSTAAREPVVKLPASVKGPLGV [P151A], which “effect of a mutation on the interaction” value is on record?
**A.** decreasing interaction strength

**Q.** For MANSGLQLLGYFLALGGWVGIIASTALPQWKQSSYAGDAIITAVGLYEGLWMSCASQSTGQVQCKLYDSLLALDGHIQSARALMVVAVLLGFVAMVLSVVGMKCTRVGDSNPTAKSRVAISGGALFLLAGLCTLTAVSWYATLVTQEFFAPSTPVNARYEFGPALFVGWASAGLAMLGGSFLCCTCPEPERANSIPQPYRSGPSTAAREPVVKLPASVKGPLGV [N150A], which “effect of a mutation on the interaction” value is on record?
**A.** decreasing interaction strength

**Q.** For MANSGLQLLGYFLALGGWVGIIASTALPQWKQSSYAGDSIITAVGLYEGLWMSCASQSTGQVQCKLYDSLLALDGHIQSARALMVVAVLLGFVAMVLSVVGMKCTRVGDSNPTAKSRVAISGGALFLLAGLCTLTAVSWYATLVTQEFFNPSTPVNARYEFGPALFVGWASAGLAMLGGSFLCCTCPEPERANSIPQPYRSGPSTAAREPVVKLPASVKGPLGV [A39S], which “effect of a mutation on the interaction” value is on record?
**A.** decreasing interaction strength

**Q.** With MANSGLQLLGYFLALGGWVGIIASTALPQWKQSSYAGDAVITAVGLYEGLWMSCASQSTGQVQCKLYDSLLALDGHIQSARALMVVAVLLGFVAMVLSVVGMKCTRVGDSNPTAKSRVAISGGALFLLAGLCTLTAVSWYATLVTQEFFNPSTPVNARYEFGPALFVGWASAGLAMLGGSFLCCTCPEPERANSIPQPYRSGPSTAAREPVVKLPASVKGPLGV [I40V] as the variant, how does the “effect of a mutation on the interaction” value read?
**A.** decreasing interaction strength

**Q.** For MANSGLQLLGYFLALGGWVGIIASTALPQWKQSSYAGDAIITAVGLYEGLWMSCASQSTGQVQCKLYDSLLALDGHIQSARALMVVAVLLGFVAMVLSVVGMKCTRVGDSNPTAKSRVAISGGALFLLAGLCTLTAVSWYATLVTQEFFNPSTPVNARSEFGPALFVGWASAGLAMLGGSFLCCTCPEPERANSIPQPYRSGPSTAAREPVVKLPASVKGPLGV [Y159S], which “effect of a mutation on the interaction” value is on record?
**A.** decreasing interaction strength

**Q.** With MANSGLQLLGYFLALGGWVGIIASTALPQWKQSSYAGDALITAVGLYEGLWMSCASQSTGQVQCKLYDSLLALDGHIQSARALMVVAVLLGFVAMVLSVVGMKCTRVGDSNPTAKSRVAISGGALFLLAGLCTLTAVSWYATLVTQEFFNPSTPVNARYEFGPALFVGWASAGLAMLGGSFLCCTCPEPERANSIPQPYRSGPSTAAREPVVKLPASVKGPLGV [I40L] as the variant, how does the “effect of a mutation on the interaction” value read?
**A.** decreasing interaction strength

**Q.** How did the “effect of a mutation on the interaction” value turn out when MANSGLQLLGYFLALGGWVGIIASTALPQWKQSSYAGDAIITAVGLYEGLWMSCASQSTGQVQCKLYDSLLALDGHIQSARALMVVAVLLGFVAMVLSVVGMKCTRVGDSNPTAKSRVAISGGALFLLAGLCTLTAVSWYATLVTQEFFNPSTDVNARYEFGPALFVGWASAGLAMLGGSFLCCTCPEPERANSIPQPYRSGPSTAAREPVVKLPASVKGPLGV [P154D] was run?
**A.** decreasing interaction strength

**Q.** How did the “effect of a mutation on the interaction” value turn out when MANSGLQLLGYFLALGGWVGIIASTALPQWKQSSYAGDASITAVGLYEGLWMSCASQSTGQVQCKLYDSLLALDGHIQSARALMVVAVLLGFVAMVLSVVGMKCTRVGDSNPTAKSRVAISGGALFLLAGLCTLTAVSWYATLVTQEFFNPSTPVNARYEFGPALFVGWASAGLAMLGGSFLCCTCPEPERANSIPQPYRSGPSTAAREPVVKLPASVKGPLGV [I40S] was run?
**A.** decreasing interaction strength

**Q.** MANSGLQLLGYFLALGGWVGIIASTALPQWKQSSYAGDRIITAVGLYEGLWMSCASQSTGQVQCKLYDSLLALDGHIQSARALMVVAVLLGFVAMVLSVVGMKCTRVGDSNPTAKSRVAISGGALFLLAGLCTLTAVSWYATLVTQEFFNPSTPVNARYEFGPALFVGWASAGLAMLGGSFLCCTCPEPERANSIPQPYRSGPSTAAREPVVKLPASVKGPLGV [A39R] was tested. Which “effect of a mutation on the interaction” value did it give?
**A.** decreasing interaction strength
